The results in this text go back to the supplement of paper PMC12455559.

± gives the standard deviation of the averaged measurements.

A short description of series [1]: PET hydrolysis, aromatic products released after 48 h (umol product/mg enzyme); higher = more PET depolymerization activity. A digest of the protocol:
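Sealed plates containing 3.5 mg PET (amorphous film or crystalline powder), 450 μL buffer and 5 μg (50 μL) tagless candidate enzyme were held 48 h at 40 or 60 °C with no shaking. Supernatants were then read at 260 and 280 nm against buffer blanks. The aromatic product detected this way, per mg enzyme, defines PET hydrolysis activity.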

Series [2] can be described thus: purified protein yield per well (BCA); higher = higher soluble expression. A digest of the protocol: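 Candidate enzymes were made in 2 mL autoinduction cultures of E. coli C41(DE3) with 100 µg/mL kanamycin, at 37 °C for 2 h and then 18 °C for 40 h, and purified with Ni-charged magnetic beads and SUMO protease cleavage. The Pierce Rapid Gold BCA kit gave purified protein yield per well. Values lower than 25 ug (0.1 mg/mL) are below the detection threshold.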

Series [3] is described as follows: melting temperature (DSF); higher = more thermostable. A digest of the protocol: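 On a Bio-Rad CFX96, fluorescence of 45 μL enzyme (0 to 0.3 mg/mL) mixed with 5 μL 5X Sypro Orange in sealed PCR plates was followed from 25 °C through 250 cycles of 0.3 °C, with a 0.3 °C/s ramp. The enzymes had been expressed in E. coli C41(DE3), taken up on nickel beads and released by SUMO protease. Melting temperature, measured by differential scanning fluorimetry, is the value given.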

Where [4] appears, read: substrate: aFilm, 40 °C, pH 5.5.
Where [5] appears, read: substrate: aFilm, 40 °C, pH 6.5.
[6] abbreviates: substrate: aFilm, 40 °C, pH 7.5.
Where [7] appears, read: substrate: aFilm, 40 °C, pH 8.5.
[8] abbreviates: substrate: aFilm, 60 °C, pH 5.5.
[9] abbreviates: substrate: aFilm, 60 °C, pH 6.5.
[10] abbreviates: substrate: aFilm, 60 °C, pH 7.5.
The mark [11] stands for this setting: substrate: aFilm, 60 °C, pH 8.5.
[12] abbreviates: substrate: cryPow, 40 °C, pH 5.5.
The mark [13] stands for this setting: substrate: cryPow, 40 °C, pH 6.5.
The mark [14] stands for this setting: substrate: cryPow, 40 °C, pH 7.5.
Setting [15] is: substrate: cryPow, 40 °C, pH 8.5.
The mark [16] stands for this setting: substrate: cryPow, 60 °C, pH 5.5.
Where [17] appears, read: substrate: cryPow, 60 °C, pH 6.5.
The mark [18] stands for this setting: substrate: cryPow, 60 °C, pH 7.5.
Where [19] appears, read: substrate: cryPow, 60 °C, pH 8.5.
[20] abbreviates: substrate: cryPow, 40 °C, pH 4.5.
Setting [21] is: substrate: cryPow, 60 °C, pH 4.5.

With “GETAQTTDVSAQSQFQRGPNPTVSSIEARTGHYRTSTTRVSSFASGFGGGTIYYPTTTSDGTFGGVAVAPGYTASSSTMDWLGPRIASQGFVVFVIDTNTRLDQPSSRGRQLLAALDYLTERSSERHRVDSNRLAVMGHSMGGGGALEATISRPSLKASIPLTPWNLTKNWSRVTTPTLIVGAENDSVASVRSHSIPFYTSLSSSTDRMYVELDGASHFAPNVSNTTIAKYSISWLKRFVDDDTRYDQFLCPLPNERAISDIRGNCPR [DP090]”, the PET hydrolysis in series [1] (setting [4]) was below 3; in series [1] (setting [5]), 5 ± 7.1; in series [1] (setting [6]), 12 ± 7.1; in series [1] (setting [7]), 22 ± 17; in series [1] (setting [8]), below 3; in series [1] (setting [9]), below 3. Also, the PET hydrolysis in series [1] (setting [10]) is below 3; in series [1] (setting [11]), below 3; in series [1] (setting [12]) it was below 3; in series [1] (setting [13]), 7; in series [1] (setting [14]), 12.5 ± 9.2; in series [1] (setting [15]), 25.5 ± 0.71. The PET hydrolysis was below 3 in series [1] (setting [16]), below 3 in series [1] (setting [17]), 2 ± 2.8 in series [1] (setting [18]) and 2 ± 2.8 in series [1] (setting [19]). Moreover, the “purified protein yield per well” value in series [2] is 423 µg. The melting temperature in series [3] is 51.4 C.

In the case of “ADNPYQRGPNPTLASVAANRGTFATAQTSVPAGNGFGGGVIYYPTDTSQTFGGVAIVPGYSALFANEEAWMGPWLASFGFVVIGIETNSRTDSADARGTQLLAALDYLTQRSSVRDRVDPNRLSVVGHSAGGAGVLSAILRRPTLKAGIGLAPGSPVGDYGLSNDRVPTMFISGQRDTTVTQSYLNGLYTTIPASTPSAWVEITGVDHLFATRANTTEMRVLIPWLKIWVDNDTRYTQFLCPLADSSNISMYRNKCPYVPPGGSPSPSASPSSSPSQSPSQSPSQSPSQSPSQSPSTSPSPPPPGACVAEYQPQNSWPGGYQALVTVKAGSSAINGWTVRWTLGSGQTISQAWNGTLSTSGSAVTVKNASYNGSLPAGGSTSFGFLATGTPSTPTLTCTSP [ESM013]”, the PET hydrolysis was below 3 in series [1] (substrate: aFilm, 40 °C, pH 4.5); below 3 in series [1] (setting [4]); below 3 in series [1] (setting [5]); below 3 in series [1] (setting [6]); below 3 in series [1] (substrate: aFilm, 60 °C, pH 4.5); below 3 in series [1] (setting [8]). Also, the PET hydrolysis in series [1] (setting [9]), in series [1] (setting [10]), in series [1] (setting [20]), in series [1] (setting [12]), in series [1] (setting [13]) and in series [1] (setting [14]) was below 3 each time. Moreover, the PET hydrolysis in series [1] (setting [21]), in series [1] (setting [16]), in series [1] (setting [17]) and in series [1] (setting [18]) was below 3 each time. In series [2], the “purified protein yield per well” value was 431 µg. This sequence also gave a melting temperature in series [3] of 59.8 C.

As for “ADNPYQRGPDPTRTSVTAVNGPFANTSVSVPTGYGFNGGRIYYPTDTSQGTFGAIAISPGYTALFSAELAWMGPWLASHGFVVIGIETNSRNDFDTARGTQLLAALDYLTQQSPVRDRVDPNRLAVAGHSMGGGGALSAAIRRPSLKAVVGIAPYSPSSNLANDRVPTMIFSGQADTVVTPSYATGLYNSLPATTESVYLEVAGADHGFMVGRSNPVMVRTMLPFVKMFIDDDARYSQFLCPLLDNSGVVTYRSTCPLLPTTPTTPPTGTPTPTPTPTQTTPPPGSASQIVGTQSGRCVDVPNASTTNGTRVQLYDCNRQTNQAWTYTSTKQLQVYGTMCLDAAGTGNGAAVQIYSCHSQTNQQWNVNSNGTISSVQSGRCLDAWSTANGAQIQLYDCHGQTNQQFRLAALA [ESM095]”, the PET hydrolysis was 11 in series [1] (setting [20]); 21 in series [1] (setting [12]); 22 in series [1] (setting [13]); 10 in series [1] (setting [14]); below 3 in series [1] (setting [21]); below 3 in series [1] (setting [16]). Also, the PET hydrolysis in series [1] (setting [17]) and in series [1] (setting [18]) was below 3 throughout. For the same sequence, the “purified protein yield per well” value in series [2] was 147 µg. Besides, in series [3], the melting temperature worked out at 63.7 C.

Regarding “SSCDIMGDVNEDSEVDIVDALLIAQAYVGLNPTIEYHPCADVNCSGSVDIVDALLIAQKYVGLISEFSCQNTPEPTIEPTSAPVLNIACGSSSALGIFQEDQYYSGGSTHNNSNTIDVSRITVNTPPTGLFNNERYGEMSYTIPDLSAGDTYTVTLYFAETYLTSPGSRLFNVSINSTEVLTNFDIYAAAGGQNNGISQSFITTANTSGRIVIDFTAVTENPKINGISIVTGIGPTNIPTPEPTPTPENSGFQRGPDPSLESISANRGTFATAELTFPAGNGFGGGFIYYPTDTSLGTWAAVAICPGGSAKFANEETWMGHWLASFGFVVIGMETNNTYDYPESRGTQLLAALDYLTQKSAVKDRVDPDRLMVMGHSMGGGGAFHAAMARSSLKTMVALAPWFNSSLTSPSMTNLHMPAMIISARNDTVVTPASCSAIYDKIPTTTQRAWVELAADDHLGFTKSNPTEMRVLIPWMKIFLDNDERYVQFLCPIANSSNISVYKNSCPFVP [TEP039]”, the PET hydrolysis in series [1] (setting [20]), in series [1] (setting [12]), in series [1] (setting [13]) and in series [1] (setting [14]) was below 3 each time. Moreover, the “purified protein yield per well” value in series [2] was found to be 34.3 µg. This sequence also yielded a melting temperature in series [3] of 50.8 C.

For the sequence “LFDNNGNKKQAYDATLSALNAGGTPVSPSPSVSPTAGPSPSTSPSPSPPPGDNPYQRGPDPTRDSVAANRGTFATAEMSVSPGNGFNGGSIYYPTDTSQGTFGAVAIVPGYTARFADEEAWMGHWLASFGFVVIGVETNSTNDFDTARGTQLLAALDWLTQSSPVRDRIDASRQSVIGHSMGGGGALHAAGNRSSLKAAVGLTPFMPSGTPANNQVPTLMIAGTNDTVVAPSYVTDLYNALPSSTERAYMEFVGADHLFPTRPNNLEMRILIPWLKTFVDSDSRYTQFLCPLMDSSGIAGYRNSCPLLPDQPTPPPTPTPSPTTPTPDPTTPGPGTCTATMSTGQVWGDRYNTSVTVTGTSNWTVVVAITPPQRISATWNGNPTWDSSGNVMTIRANGNGNVFGFTTMFNGNSWARPQIRSCTAG [DP081]”, the PET hydrolysis in series [1] (setting [4]), in series [1] (setting [5]), in series [1] (setting [6]), in series [1] (setting [7]), in series [1] (setting [8]) and in series [1] (setting [9]) was below 3 in each case. In addition, the PET hydrolysis in series [1] (setting [10]) was below 3; in series [1] (setting [11]), below 3; in series [1] (setting [12]), 7.5 ± 0.71; in series [1] (setting [13]), 21 ± 2.8; in series [1] (setting [14]), 14.5 ± 0.71; in series [1] (setting [15]), 12.5 ± 2.1. For the same sequence, the PET hydrolysis in series [1] (setting [16]), in series [1] (setting [17]), in series [1] (setting [18]) and in series [1] (setting [19]) was below 3 each time. In series [2], the “purified protein yield per well” value was 244 µg. Moreover, the melting temperature in series [3] was determined as 57.1 C.
